In article PMC4762201 (Nature, 2016):

T1: Prp6 (S. cerevisiae, UniProt P19735 1-899)
T1 sequence: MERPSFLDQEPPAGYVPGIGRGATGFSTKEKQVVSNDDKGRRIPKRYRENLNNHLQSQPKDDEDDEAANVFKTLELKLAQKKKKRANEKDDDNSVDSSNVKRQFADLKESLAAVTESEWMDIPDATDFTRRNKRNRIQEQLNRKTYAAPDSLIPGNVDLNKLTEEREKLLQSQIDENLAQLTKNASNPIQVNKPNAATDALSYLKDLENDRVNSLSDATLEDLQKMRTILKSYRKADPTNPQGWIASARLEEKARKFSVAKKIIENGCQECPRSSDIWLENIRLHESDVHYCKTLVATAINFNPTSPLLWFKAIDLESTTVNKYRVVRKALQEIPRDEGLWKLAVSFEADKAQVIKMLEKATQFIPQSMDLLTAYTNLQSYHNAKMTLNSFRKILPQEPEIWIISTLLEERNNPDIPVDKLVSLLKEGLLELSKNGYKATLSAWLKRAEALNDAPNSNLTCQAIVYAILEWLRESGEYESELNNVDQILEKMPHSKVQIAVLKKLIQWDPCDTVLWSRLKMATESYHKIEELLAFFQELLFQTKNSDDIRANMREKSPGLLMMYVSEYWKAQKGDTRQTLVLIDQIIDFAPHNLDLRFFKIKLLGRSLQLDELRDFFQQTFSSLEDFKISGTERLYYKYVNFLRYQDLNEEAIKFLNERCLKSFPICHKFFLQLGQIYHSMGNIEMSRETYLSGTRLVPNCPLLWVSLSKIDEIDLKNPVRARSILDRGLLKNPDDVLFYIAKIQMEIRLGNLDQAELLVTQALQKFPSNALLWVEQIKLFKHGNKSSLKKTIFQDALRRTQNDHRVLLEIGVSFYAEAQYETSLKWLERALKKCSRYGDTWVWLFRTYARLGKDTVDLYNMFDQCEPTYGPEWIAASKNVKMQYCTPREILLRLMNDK

B1: Snu13 (natural protein, S. cerevisiae, UniProt P39990 1-126, looked up)
chain: MSAPNPKAFPLADAALTQQILDVVQQAANLRQLKKGANEATKTLNRGISEFIIMAADCEPIEILLHLPLLCEDKNVPYVFVPSRVALGRACGVSRPVIAASITTNDASAIKTQIYAVKDKIETLLI
B2: Prp31 (natural protein)
chain: MSSEEDYFDELEYDLADEVNEEKEDIQTKKLTTVNCQTEKFNPFEILPESIELFRTLALISPDRLSLSETAQILPKIVDLKRILQQQEIDFIKLLPFFNEIIPLIKSNIKLMHNFLISLYSRRFPELSSLIPSPLQYSKVISILENENYSKNESDELFFHLENKAKLTREQILVLTMSMKTSFKNKEPLDIKTRTQILEANSILENLWKLQEDIGQYIASKISIIAPNVCFLVGPEIAAQLIAHAGGVLEFSRIPSCNIASIGKNKHLSHELHTLESGVRQEGYLFASDMIQKFPVSVHKQMLRMLCAKVSLAARVDAGQKNGDRNTVLAHKWKAELSKKARKLSEAPSISETKALPIPEDQPKKKRAGRKFRKYKEKFRLSHVRQLQNRMEFGKQEQTVLDSYGEEVGLGMSNTSLQQAVGATSGSRRSAGNQAKLTKVMKHRISEANQQADEFLISLGHNTEQPNLSPEMVQMHKKQHTNPEEETNWFSGHG
B3: Snu66 (natural protein, S. cerevisiae, UniProt Q12420 1-587, looked up)
chain: MNKTENLSIEETNEIREKLGMKPIPVFQEKNTDHKESLSIEETNELRASLGLKLIPPQQNFNSSPPNVHNTSKIDELREKITKFQKKANAPLRMAHLLEETNVNDDSSWLENMDAIPSSHESKRSSTLPRKGATKEDENIDLHNVQVSYNIEALSPKKDTILTLKESSIFDDTDSTEVLENVKAAEENADREKLRLRQMNKDRRQKKKILNVSSLDIEEEEEGEKHSITTTHLIIGAEQGVMKAPNTISAKPPTGKVKVNFDSANNMSDEDGGDFKPLKIKKRKIKDPRSTKARKSKITDKMEIVKLVDEDESLSWMEEEQPVTIINPRTSSNNELKGPEDLAREIEKARDEEKRRTESILKMREISNSIVVDEKVTFLNTLDTSLSERSATENKVKVHGEGEKNIGDVTNGHTKEGSGNNTLTEAVNNEPNYEGDAENAPNFFSGLASTLGYLRKKSVFTTGDVDLKPGKDVNNSESLRRDVRNKEHTGTGTYTKDKLHGLEQFTSSDSSNANTHSKRQDHYDPDIKLVYRDEKGNRLTTKEAYKKLSQKFHGTKSNKKKRAKMKSRIEARKNTPENGSLFEFDDN
B4: Dib1 (natural protein, S. cerevisiae, UniProt Q06819 1-143, looked up)
chain: MASVLLPQLRTGWHVDQAIVTETKRLVVIRFGRKNDRQCMIMDELLSSIAERVRNFAVIYLCDIDEVSDFDEMYELTDPMTVMFFYHNKHMMCDFGTGNNNKLNFIVDDKQEMIDILETIFRGARKNKGLVVSPYDYNHKRVS
B5: Prp4 (natural protein)
chain: MSKYIALENLPVDLQHKGATQNESTADILKQLPHERLQAVLEKIPEEDLEVRRLLSILKKPEVVENEDVQQRRIRLAEILMVDEIDLENINNMENINGEEVDEEDDEDFFTPATSELIFARRFLINYSLERSRKRLQKEMERHQKFNTRQELLSRRTELQRMANLELAGSQLVSTKPISAVSLSTDDMVVATGSWAGDLQVLNSQTLQPLTQKLDSHVGKIGAIDWHPDSNNQMISCAEDGLIKNFQYSNEEGGLRLLGDLVGHERRISDVKYHPSGKFIGSASHDMTWRLWDASTHQELLLQEGHDKGVFSLSFQCDGSLVCSGGMDSLSMLWDIRSGSKVMTLAGHSKPIYTVAWSPNGYQVATGGGDGIINVWDIRKRDEGQLNQILAHRNIVTQVRFSKEDGGKKLVSCGYDNLINVYSSDTWLKMGSLAGHTDKIISLDISNNSHFLVSGGWDRSIKLWN
B6: Prp3 (natural protein)
chain: MPPRNTYEKGNPKRQNSPYYKPSFLRREETTNDEEKFQGHGLKTELHSALKSSNLNLIRRTYQTGENPYLSDPHDRGSSSRFNRRYERGLKFYQKGEISKRIAQERTLQKQQEEEELKRKLKQEEDEKDKRKLIESGDLPNLELHEDKFLLDLSKFKIYYDNNHGYEWWDTAYLDEKGELMEKYDMNGTSPAEEKLAEDIDEVDDDDDDEHPSIRYVAHPLPEKINEAKVSIKAYLTQHERKRLRRNRRKMAREAREIKIKLGLLPKPEPKVKLSNMMSVFENDQNITDPTAWEKVVKDQVDLRKRKHLEENERRHEDAIKRRKEAVNMNVEKPTVYHCKVFQFKNLQNPKIRFKLKMNSKELSLKGLCLRIRDDGPGIIIVVGNEKSCKFYENLVMKRIKWNEDFELHTNTGDIKMDMHNNSISKTWEGYLQDCKFKGWFMKVCNDQDSLLRTLGQFDSEHFYSPVQT

Legend:
Assay in all cases: cryo-EM structure
[1] = molecular target: B2
[2] = molecular target: B6
[3] = molecular target: B5
[4] = molecular target: T1, Prp6
[5] = molecular target: Brr2 (S. cerevisiae, UniProt P32639 1-2163)
Chain of Brr2 (P32639 whole entry): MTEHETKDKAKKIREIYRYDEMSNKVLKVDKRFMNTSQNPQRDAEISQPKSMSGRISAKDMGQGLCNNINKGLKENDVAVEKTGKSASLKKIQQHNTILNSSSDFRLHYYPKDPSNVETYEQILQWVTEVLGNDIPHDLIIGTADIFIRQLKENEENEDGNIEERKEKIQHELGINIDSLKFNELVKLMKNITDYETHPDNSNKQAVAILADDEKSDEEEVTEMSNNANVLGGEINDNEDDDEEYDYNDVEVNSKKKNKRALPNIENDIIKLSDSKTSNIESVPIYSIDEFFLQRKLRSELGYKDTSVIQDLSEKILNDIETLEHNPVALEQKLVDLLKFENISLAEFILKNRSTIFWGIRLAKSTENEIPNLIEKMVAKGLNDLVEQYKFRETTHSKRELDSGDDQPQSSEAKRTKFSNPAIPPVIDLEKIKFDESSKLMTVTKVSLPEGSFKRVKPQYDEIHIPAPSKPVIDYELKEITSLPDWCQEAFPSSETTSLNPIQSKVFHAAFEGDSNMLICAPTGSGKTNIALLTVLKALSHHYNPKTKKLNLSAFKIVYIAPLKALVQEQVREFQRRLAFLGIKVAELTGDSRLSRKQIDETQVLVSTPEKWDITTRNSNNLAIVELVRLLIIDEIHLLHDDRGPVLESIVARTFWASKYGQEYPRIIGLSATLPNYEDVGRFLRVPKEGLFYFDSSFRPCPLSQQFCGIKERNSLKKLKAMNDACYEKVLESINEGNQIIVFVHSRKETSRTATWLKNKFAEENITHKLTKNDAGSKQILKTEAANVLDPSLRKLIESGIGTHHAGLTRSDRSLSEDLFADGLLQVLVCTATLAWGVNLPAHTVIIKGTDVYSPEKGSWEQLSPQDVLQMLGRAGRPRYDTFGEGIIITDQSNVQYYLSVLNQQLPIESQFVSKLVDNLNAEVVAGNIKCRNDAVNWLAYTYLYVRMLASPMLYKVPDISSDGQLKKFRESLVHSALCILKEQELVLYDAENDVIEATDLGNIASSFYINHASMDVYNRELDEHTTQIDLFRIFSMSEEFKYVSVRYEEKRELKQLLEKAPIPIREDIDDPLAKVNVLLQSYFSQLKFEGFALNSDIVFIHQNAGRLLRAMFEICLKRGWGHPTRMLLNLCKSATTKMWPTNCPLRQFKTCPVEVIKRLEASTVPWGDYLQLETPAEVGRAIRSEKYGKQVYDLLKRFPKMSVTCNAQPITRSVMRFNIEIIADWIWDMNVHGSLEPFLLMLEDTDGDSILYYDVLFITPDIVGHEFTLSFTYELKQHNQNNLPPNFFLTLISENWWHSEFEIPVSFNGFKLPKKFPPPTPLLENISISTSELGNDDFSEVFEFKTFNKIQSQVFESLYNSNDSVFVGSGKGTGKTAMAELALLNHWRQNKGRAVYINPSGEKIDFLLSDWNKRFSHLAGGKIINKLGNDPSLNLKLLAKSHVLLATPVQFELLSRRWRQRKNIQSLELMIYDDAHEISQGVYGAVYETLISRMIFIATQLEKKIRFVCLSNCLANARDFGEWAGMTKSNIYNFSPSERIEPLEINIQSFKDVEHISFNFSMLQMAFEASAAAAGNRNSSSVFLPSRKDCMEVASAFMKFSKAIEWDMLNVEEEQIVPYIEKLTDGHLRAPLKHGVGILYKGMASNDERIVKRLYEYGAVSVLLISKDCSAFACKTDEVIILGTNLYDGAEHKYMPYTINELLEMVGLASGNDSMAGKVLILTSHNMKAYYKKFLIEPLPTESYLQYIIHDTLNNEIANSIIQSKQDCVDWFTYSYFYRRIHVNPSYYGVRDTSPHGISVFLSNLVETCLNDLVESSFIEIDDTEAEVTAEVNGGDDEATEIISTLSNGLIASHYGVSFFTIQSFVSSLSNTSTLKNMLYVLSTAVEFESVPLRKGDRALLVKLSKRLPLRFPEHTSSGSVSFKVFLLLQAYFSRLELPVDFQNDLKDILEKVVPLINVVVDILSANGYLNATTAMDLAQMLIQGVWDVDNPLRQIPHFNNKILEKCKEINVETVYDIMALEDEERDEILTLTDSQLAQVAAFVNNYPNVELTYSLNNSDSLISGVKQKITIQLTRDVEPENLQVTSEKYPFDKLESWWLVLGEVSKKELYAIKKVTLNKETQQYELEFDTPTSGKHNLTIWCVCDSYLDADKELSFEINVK

Binder	binding result [1]	binding result [2]	binding result [5]	further results
B1	binds	binds		binding result [3]: binds
B2				binding result [4]: binds
B3			binds	
B4	binds			
B5		binds		
B6			binds	
